Assay results taken from article PMC4764579, “Structural insights into the mechanism of activation of the TRPV1 channel by a membrane-bound tarantula toxin” (eLife, 2016).

B1: bivalent K1 (K1K1) (protein)
chain: GDCAKEGEVCSWGKKCCDLDNFYCPMEFIPHCKKYKPYVPVTTDCAKEGEVCSWGKKCCDLDNFYCPMEFIPHCKKYK
B2: bivalent K2 (K2K2) (protein)
chain: NCAKEGEVCGWGSKCCHGLDCPLAFIPYCEKYRPYVPVTTNCAKEGEVCGWGSKCCHGLDCPLAFIPYCEK

Target: rat TRPV1, full-length channel expressed in HEK293 cells (rat) (UniProt O35433)
Sequence (O35433 whole entry): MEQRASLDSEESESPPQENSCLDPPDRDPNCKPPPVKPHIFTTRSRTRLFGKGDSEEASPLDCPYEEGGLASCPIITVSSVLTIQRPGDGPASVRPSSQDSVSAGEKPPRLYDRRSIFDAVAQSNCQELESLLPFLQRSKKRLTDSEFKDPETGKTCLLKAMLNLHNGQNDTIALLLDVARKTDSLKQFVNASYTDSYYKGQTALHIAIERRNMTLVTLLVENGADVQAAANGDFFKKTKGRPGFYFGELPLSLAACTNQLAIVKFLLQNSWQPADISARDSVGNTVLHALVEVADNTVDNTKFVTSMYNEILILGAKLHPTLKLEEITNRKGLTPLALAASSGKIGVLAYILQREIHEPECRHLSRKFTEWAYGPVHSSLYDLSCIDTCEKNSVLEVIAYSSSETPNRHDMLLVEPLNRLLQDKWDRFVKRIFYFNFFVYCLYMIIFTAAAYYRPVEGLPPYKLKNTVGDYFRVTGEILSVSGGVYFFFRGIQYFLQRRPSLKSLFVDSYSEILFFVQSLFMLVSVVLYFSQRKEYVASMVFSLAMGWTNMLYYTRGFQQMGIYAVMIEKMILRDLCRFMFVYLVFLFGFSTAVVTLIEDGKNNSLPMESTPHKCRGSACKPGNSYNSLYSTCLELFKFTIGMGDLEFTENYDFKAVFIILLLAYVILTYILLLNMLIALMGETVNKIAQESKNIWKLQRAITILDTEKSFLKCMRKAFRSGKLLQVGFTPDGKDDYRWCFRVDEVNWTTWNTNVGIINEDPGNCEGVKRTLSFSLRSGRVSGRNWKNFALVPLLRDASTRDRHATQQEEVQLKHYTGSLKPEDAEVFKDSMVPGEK

Binder | fractional dissociation 1 min after toxin removal (current 1 min after removal divided by steady-state current with toxin), whole-cell patch clamp at +120 mV, TRPV1 in HEK cells
B1 | 0.3
B2 | 0.96
